The values that follow come from publication PMC6370319 (Cell reports, 2019).

Where a chain is given by its changes, count along the chain named. Names and notes keep the numbering of the source.

The chains are these.
B1: FNIP1-D-His6 (domain or fragment)
chain: TEWDIPRNESSDSALGDSESEDTGHDMTRQVSSYYGGEQEDWAEEDEIPFPGSKLIEVSAVQPNIANFGRSLLGGYCSSYVPDFVLQGIGSDERFRQCLMSDLSHAVQHPVLDEPIAEAVCIIADMDKWTVQVASSQRRVTDNKLGKEVLVSSLVSNLLHSTLQLYKHNLSPNFCVMHLEDRLQELYFKSKMLSEYLRGQMRVHVKELGVVLGIESSDLPLLAAVASTHSPYVAQILL
B2: FNIP1-D-His6 S939A (domain or fragment)
chain: B1 chain with S11A
B3: FNIP1-D-His6 S941A (domain or fragment)
chain: B1 chain with S13A
B4: FNIP1-D-His6 S946A (domain or fragment)
chain: B1 chain with S18A
B5: FNIP1-D-His6 S938A (domain or fragment)
chain: B1 chain with S10A
B6: FNIP1-D-His6 S948A (domain or fragment)
chain: B1 chain with S20A

The first experiment has as its target Hsp90α (UniProt P07900). The experiment is described as follows: FNIP1-FLAG IP from yeast, Hsp90α blot. The conditions noted are these: reference: wild type FNIP1-FLAG; sites S948.
In the case of FNIP1 (from UniProt Q8TF40) S948A, the “binding against the reference” value is given as “weaker”.

The next experiment deals with T1, OGT-FLAG (human, UniProt O15294-3 1-1036).
T1 sequence: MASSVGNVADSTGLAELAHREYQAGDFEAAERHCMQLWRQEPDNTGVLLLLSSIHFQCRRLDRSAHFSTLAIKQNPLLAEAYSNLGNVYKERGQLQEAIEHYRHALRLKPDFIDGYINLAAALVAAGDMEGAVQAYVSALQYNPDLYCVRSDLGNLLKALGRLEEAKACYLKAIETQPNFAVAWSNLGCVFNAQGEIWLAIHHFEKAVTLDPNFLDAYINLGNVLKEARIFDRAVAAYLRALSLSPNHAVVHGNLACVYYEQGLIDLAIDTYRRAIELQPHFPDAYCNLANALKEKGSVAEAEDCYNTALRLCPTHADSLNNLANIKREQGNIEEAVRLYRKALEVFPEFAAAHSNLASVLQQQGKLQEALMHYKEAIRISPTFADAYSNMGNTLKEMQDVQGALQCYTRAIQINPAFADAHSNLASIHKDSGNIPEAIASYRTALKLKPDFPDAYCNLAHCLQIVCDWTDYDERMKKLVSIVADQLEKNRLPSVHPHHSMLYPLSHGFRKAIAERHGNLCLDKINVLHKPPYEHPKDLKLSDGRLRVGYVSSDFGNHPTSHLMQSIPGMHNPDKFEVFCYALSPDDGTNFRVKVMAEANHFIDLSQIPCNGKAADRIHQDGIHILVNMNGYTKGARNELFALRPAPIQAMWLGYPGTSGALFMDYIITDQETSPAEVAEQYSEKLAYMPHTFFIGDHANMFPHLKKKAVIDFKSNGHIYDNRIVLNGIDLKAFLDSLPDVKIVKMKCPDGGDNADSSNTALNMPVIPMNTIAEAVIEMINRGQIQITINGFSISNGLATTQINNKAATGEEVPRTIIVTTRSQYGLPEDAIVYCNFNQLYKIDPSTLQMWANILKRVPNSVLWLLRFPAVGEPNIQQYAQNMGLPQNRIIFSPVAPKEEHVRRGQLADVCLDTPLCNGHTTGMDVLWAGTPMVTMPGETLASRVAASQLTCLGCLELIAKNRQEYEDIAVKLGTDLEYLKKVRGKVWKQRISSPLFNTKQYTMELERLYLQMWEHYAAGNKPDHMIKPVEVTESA
Nature of the experiment: pull-down.
Settings: not given
On to B1, for which the binding result is given as “binds”.
Still for that read-out and setting: as for B2, the entry is “binds”.
On to B3, for which the binding result was “binds”.
The same measure, in the same setting: as for B4, the entry is “binds”; as for B5, “binds”; as for B6, “binds”.
